Reference: a protein production outcome set (Wang et al. 2014)

Test: label from the status in PepcDB records

Sequence | protein production
MRAVIPYKKAGAKSRLSPVLSLQEREEFVELMLNQVISSLKGAGIEQVDILSPSVYGLEEMTEARVLLDEKDLNEALNRYLKEAEEPVLIVMADLPLLSPEHIKEISSTEKDVCIVPGKGGGTNALFIKNPSKYRVKYYGSSFLTHCSIATDSGQDFEIYDSFMAGTDIDEPEDLVELLIHGKGAAKDYIESKFRLEVKKG | failed
MDSGESGPQQWAGVVKVNDRMGYVTFTDAAGTELIPTNTIPVTLNARMAYIYCQVDEGQDLSTNPKSIKITLLADPTGIDATAITTPKVGESGDVTTNAPVGSLSFVSGYSTVAPFQFSENTIVLPVLYRVKNVTTTEDIKNELAKHTFTLVCYTDDIKSGDTILKLYLRYKVEDEPAAIAERATRTSSFKAYEISQILREYTLKSGQTKPAKITIVAQQNEYNNKLEDTSTIEKVYEIEYKTAE | not failed
MSTDDPRFAGIARLYGIEGLARLRAAHVAIVGIGGVGSWAAEAMARSGVGEISLFDMDDVCVSNSNRQLHALDTTVGRPKVEVMAERIRAINPDCVVHAVSDFVTRDTMAECITPDMDFVIDCIDSVNAKAALISWCKRRKIQMVTTGAAGGQIDPTLIQIADLNRTFNDPLASKVRSTLRRDYGFSRTPNRHYSVPCVFSTEQLRYPKPDGSICLEKKFIGDGVKLDCAGGFGAVMMVTATFGMIAATRAVDKLVAGTRRPSERAKPAAVTANQA | failed
MSLVNNFTVKKVRSSNLELLRLLSMFFVLVVHADFQALGMPDRTEMTILPLFSVFRIIIEAFAIVCVNSFVLLSGWFGINFHIKSLCNLLFQCAFFLIGIYTFTILIGIEPLSISGIKRCLMLTNNVWFVKCYLGMFIMAPILNAFVEKTDKRTFSTVLLSFFIFQTIYGWFSNGAPYFEKGYSAFSFMGLYLLARYVRIYQPSYTQWSKSKNLLMYISLSTFTALMLIITCYFDKVGYFCMFWTYTSPLVIAGALYLLLFFNRFAFQNKGINWIAASCFAVYLFHFFIWEYFMKPHIQQLAVTYNGISCLLVITGLLLTFFTAAILIDKIRLYIWNHFVSKYIS | failed
MKWEMGLQEEYIELIKAGKKKIEGRLYDEKRRQIKPGDIIIFEGGKLKVKVKGIRVYSSFKEMLEKEGIENVLPGVKSIEEGVKVYRQFYDEEREKKYGVVAIEIEPIE | not failed
MVEGLGRIGFGLFGLAVLIGITWLFSSNRRAIDWKLVATGLALQISFAALVLLVPGGRDVFDALGKGFVKVLSFVNEGSTFIFGNLMNIDSYGFIFAFQVLPTIIFFSALMGVLYHLGVMQMVVRAMAWAITKVMRVSGAETTSVCASVFIGQTEAPLTVRPYIPKMTQSELLTMMIGGMAHIAGGVLAAYVGMLGGSDPAQQAFYAKHLLAASIMAAPATLVVAKLLVPETGTPLTRGTVKMEVEKTTSNVIDAAAAGAGDGLRLALNIGAMLLAFIALIALINAPLTWLGEVTGATALLGRPTNLSTIFGYVLAPIAWVIGTPWVDATTVGSLIGQKVVINEFVAYSELSRIVKGEVRGVGLSAEGRLIATYALCGFANFSSIAIQIGGIGGLAPERRHDLANFGLRAVLGGSIATFMTATIAGVLSHFG | failed
MEYHLRTKLNGNIAMTSCFHENSFLQCDRSLYKFIWVRHGALDVEVDHVVMHLEKEEMISLTPLHHVQIRGVDGEYLTFLFNSNFYCIYGHDSEVSCNGFLFNGSSRVMRLKLSPSQSARLDSIVDIFRGECGIQDNLQEEMLRIILKRFIITCTRIAREKFDVDPGRENMFDVIRQFYVLVDSHFKEKKQVQDYADMLCRSPKTISNLFSLYGLSSPLRVIHERVDAEAKRLLLYTGKSAKEISEILGFEDLATFSRFFKKMNKESLSEYRKREKRE | not failed
MSYLDTATDLPNQTLFLEYLNIALSNARRHHAQVGVLLCQINNWSDLKRKRGDAVANAFLQEAGQKLKSNLRNGDIVSRWDKDEFIFLVSKVQDTSSLLGIAQRLMKPVLAPVTAGGRPFQPEITYGVALYPVDGEQVNDLIGHIRENLQQLLPQPTLEHHHHHH | failed
MAVTLRLTNSLAFSSHPLTSSVLFRGSKSIGTITKIASTIRTVKMAAFAGSDSETTSSTSRVIDSHLHIWASPQEAETYPYFPGQEPTLTGDVNFLLKNMEEARVDGALIVQPINHKFDHSLVTRSRPF | failed
MKKFKFTLFSLLVIIFSGLLIQRFSGYFYTTPVGIVKSVKIIDSEQLLTVKLVNNTKKTVVVKVKFNGNESTNPVFNKNNQILLDNSTKKWEFISLKRDGYTFILVVSFVSLVLGIAGKKGFFSLVGILFNIIFLFFLLWINQRNRSINLLLLISIYTIIAIIISTGTLYGLKKIDLRKVLATIFSVFLSYFITTITMKLLNDQGLRYEEMQFLTRPYRTVFLASLMLGGIGAALDNVVVIISSLDQLVRHTPEINTKELIESGKNIASDTTTSMINVLLFAYLSSATPFFIFYLANGWDFVETFKMHLSLEIMRILCGGLAILFTIPSSFLFFLLFKKIKKEGENR | failed
MSSLFVVGIGPGSNDLMTPQASLAIERSEYVIGFSLYVSFIKEKFPNKIYISNGMQGEIERAKKAIELARSGHNVSIISSGDAGIYGIAGAVFEILSTLEDNMPEVSVVPGIS | not failed
MNNLQTKFPHIAIKLNEPLSKYTYTKTGGAADVFVMPKTIEEAQEVVAYCHQNKIPLTILGNGSNLIIKDGGIRGVILHLDLLQTIERNNTQIVAMSGAKLIDTAKFALNESLSGLEFACGIPGSIGGALHMNAGAYGGEISDVLEAATVLTQTGELKKLKRSELKAAYRFSTIAEKNYIVLDATFSLALEEKNLIQAKMDELTAAREAKQPLEYPSCGSVFKRPPGHFAGKLIQDSGLQGHIIGGAQVSLKHAGFIVNIGGATATDYMNLIAYVQQTVREKFDVELETEVKIIGEDK | not failed
MQAFRAPSLATIDDVCGTRADGYDGAPLRSIPDFAVIVPMHNEEASVETLVAEIVTACQPVGQFEIVVVDDASSDRTVNAVLSLGDRYPMLRLVRHDRQGGQSAAIHSGVQAARAPVICMLDGDGQNPPDNLPALLAPLLSATATSRLGLVAGQRVGRRDTLGKRLSSRFANGLRARILKDGTRDTGCGLKAFRRDAYLALPYFDHHHRYFPALFNRDGWQVAHVDVTHRARLHGNSHYTNIGRALVGIHDLIGVVWLLRRRKRSSWAETFKTETSPLEHHHHHH | not failed
MAEIKHYQFNVVMTCSGCSGAVNKVLTKLEPDVSKIDISLEKQLVDVYTTLPYDFILEKIKKTGKEVRSGKQLAREVILAVHGMTCSACTNTINTQLRALKGVTKCDISLVTNECQVTYDNEVTADSIKEIIEDCGFDCEILRDS | not failed
MNSEIFRIFRKKYSEEIRNPPMNATTLPEALKLMQYIGDAIGTIRDPQELFRTVTDKLRLLFAFDSAVIITIDRERREASVFFEMLRFELPEQLRHQTRSIAGTWLEGHLDDRTVTVASIARDIPSFGADGAPLLWTLHELGMRQIVLSPLRSGGRVIGFLSFVSAEEKLWSDGDKSLLSGVSSSIAIAVSNALAYEELRQRE | failed
MALRQKLGWSEGDLMRSDAKPCSRLMKQTAAIFTVGGALGFWVLCRLHYGPRITVPRSLRWAGCGALSVSTSTAMLVRLFSPECEPQNIAAYDNIKTPQASLP | failed
MRRLLVALCLLTVVLGSTSALAQARNQLGPLCTTETTPADKMVDACTKIIALKVFKGEQLATVYFWRAVGWNKKGDYAKVITDATEAIRLQPSQAVYNLRGSAYYDKGDYDIAIADFDDALKLGPPSGIIFHNRGNAWRGKHDYTKAIADYDMSIKADPKSAFSFQNRGISKEALGDLDGALADINQAIRLDPTLPQPLINRTSIWRAKGDLDRAIADGSEAIRLAEKKPPANIMTPPNSVLISGYTHRALAYEAKGDYARARDDYKATLAIVASDAGSKANQATAKVRLSLVSDAAVPIPRDAPSPTTQPTAAPAPQQTGAASAPSPAPAVRGTRMALIIGNGAYAHVKALPNPPNDARAVAKSLRDIGFTVSEGVDLDRAAMQKMTRDFLRDAARAQVAVVYYAGHGVQVDGRNYLIPVDVELKPGTAMTEAMIDMDTIMAGLDDQVRTNILIFDACRNNPMAQQVASAAANRGIEGASGLAAPTSLGAGATLGAGTLIAFATAPGQVALDGDGANSPFSAALSRHIGTLGLEVQQMLTRVRAEVVSTTKNKQVPWSNSSLLGEVYLAEK | failed
MFKIYNNGNPIPMGYSQAVENNVQITNFALFSAAAIGVELCLFDEQNQETRLPMVRTENVWHLAVTGVKTGTEYAFRIHGEFANPQKLILDPYAKAVNGKPDLSSEESRSWFLLSDNRDNAHLAPRAVVIS | failed
